Assay results as given in article PMC6497953.

Target: PilE2, major pilin of Streptococcus sanguinis 2908 type IV pili (mature, untagged) (Streptococcus sanguinis 2908)
Experiment: top-down mass spectrometry of purified filaments; purified Tfp from S. sanguinis WT, intact protein mass spectra on an LTQ Orbitrap; ratio of the two major proteoforms

Substance: PilE1, major pilin of Streptococcus sanguinis 2908 type IV pili (mature, untagged) (natural protein)
- stoichiometry N (PilE1 per PilE2): 1.33
